Results published in patent US20210214435A1 (MorphoSys, published 2021).
Blank lines part the entries; values can stand above or below the binder they belong to.

What was measured:
[1] = target: T1, mouse GPVI on the cell surface of mouse platelets (mouse, UniProt P0C191 22-313); experiment: FACS on washed murine platelets from PRP (one exemplary donor), PE-conjugated detection antibody, median fluorescence
T1 construct: whole, on cells; also called GPVI on murine platelets
T1 sequence (looked up): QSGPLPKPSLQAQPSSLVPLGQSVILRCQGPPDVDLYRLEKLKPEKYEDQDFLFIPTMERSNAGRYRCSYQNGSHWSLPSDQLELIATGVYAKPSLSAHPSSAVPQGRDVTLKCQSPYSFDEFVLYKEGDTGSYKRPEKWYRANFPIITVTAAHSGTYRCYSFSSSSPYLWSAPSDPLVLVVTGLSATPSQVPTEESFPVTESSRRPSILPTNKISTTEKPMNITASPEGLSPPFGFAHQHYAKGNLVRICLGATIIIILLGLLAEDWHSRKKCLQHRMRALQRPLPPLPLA
Description: (§1) Platelet-rich plasma (PRP) from up to 4 donors was prepared by centrifugation of citrated whole blood for 15 min at 150×g without brake. The resulting supernatant was transferred as PRP into a new sample tube without disturbing the underlying leukocyte-rich interphase. After careful washing in Tyrode's buffer supplemented with Prostacyclin 1₂ (PGI2; Epoprostenol-Rotexmedica), platelets were resuspended in Tyrode's/PGI2 and transferred to 96 well V-bottom microtiter plates. Platelets were spiked with Fab (comprising a modified heavy chain constant region) diluted to final concentrations between 0.015-30 μg/ml in Tyrode's/PGI2 and incubated for 30 min at RT. Platelets were carefully washed to remove non-bound Fab and then incubated for 30 min at RT with a Phycoerythrine (PE)-conjugated detection antibody (Jackson ImmunoResearch). After incubation for 30 min at RT, platelets were analyzed by flow cytometry in a FACS Canto II (Becton Dickinson). In the case of Fab directly conjugated with PE (FIG. 1D), incubation with detection antibody was omitted. Data was evaluated using FACS Diva software (Becton Dickinson). EC50 values were calculated using Prism 5 software (GraphPad).

[2] = target: T2, mouse GPVI extracellular domain fused at its C-terminus to human IgG1 Fc (GPVI-Fc) (mouse; human); experiment: Solution equilibrium titration (SET), Fab with GPVI-Fc
T2 construct: also called mGPVI; mouse GPVI-Fc
Description: (§2) Affinity determination in solution was basically performed as described in the literature (Friguet et al. 1985). In order to improve the sensitivity and accuracy of the SET method, it was transferred from classical ELISA to ECL-based technology (Haenel et al. 2005).
(§3) 1 mg/mL goat-anti-human (Fab)2 fragment specific antibodies (Dianova) were labeled with MSD Sulfo TAG™ NHS-Ester (Meso Scale Discovery | Gaithersburg | Md. | USA) according to the manufacturer's instructions. The experiments were carried out in polypropylene microtiter plates and PBS (GIBCO 14190 | pH 7.0-7.2) containing 0.5% BSA and 0.02% Tween20 as assay buffer. Serial dilutions of unlabeled human GPVI-Fc (SEQ ID NO: 4), cynomolgus monkey GPVI-Fc (SEQ ID NO: 7), and mouse GPVI-Fc (SEQ ID NO: 8) (as prepared in Example 1) were prepared, starting with a concentration at least 10 times higher than the expected KD. Wells without antigen were used to determine Bmax values; wells containing only assay buffer were used to determine background. After addition of appropriate amount of binder (antibody concentration similar to or below the expected KD, 60 μL final volume), the mixture was incubated over night at RT. MSD plates were coated with antigen or biotinylated antigen on standard and streptavidin plates, respectively (30 μL per well). After washing the plate with PBS with 0.05% Tween 20, the equilibrated samples were transferred to the plates and incubated for 20 min. Following incubation, 30 μL per well of the MSD-Sulfo-tag labeled detection antibody (anti-human (Fab)2 | final dilution typically 1:2,000) was added to the washed MSD plate and incubated for 30 min at RT on an Eppendorf shaker (700 rpm). After washing the MSD plate and adding 30 μL/well MSD Read Buffer T with surfactant, electrochemiluminescence signals were detected using a Sector Imager 6000 (Meso Scale Discovery | Gaithersburg | Md. | USA). The data was evaluated with XLfit (IDBS) software applying customized fitting models. For KD determination of Fabs the fit model according to (Haenel et al. 2005), modified according to (Abraham et al.) was used.

[3] = target: T3, human GPVI-1A extracellular domain fused at its C-terminus to human IgG1 Fc (GPVI-Fc) (human); experiment: as above
T3 construct: also called hGPVI-1a; hGPVI
Description: as §2, §3

[4] = target: T4, cynomolgus monkey GPVI extracellular domain fused at its C-terminus to human IgG1 Fc (GPVI-Fc) (cynomolgus monkey; human); experiment: as above
T4 construct: also called cyGPVI-2; cyGPVI
Description: as §2, §3

[5] = target: T5, cynomolgus monkey GPVI on the cell surface of cynomolgus monkey platelets (cynomolgus monkey); experiment: FACS on washed cynomolgus platelets from PRP (one donor), PE-conjugated detection antibody, median fluorescence
T5 construct: whole, on cells; also called GPVI on cynomolgus monkey platelets
Description: as §1

[6] = target: T4, cynomolgus monkey GPVI extracellular …; experiment: Competition ELISA (MSD): cynomolgus GPVI-Fc preincubated with Fab, then on coated rat-tail collagen (competitor)
Description: 1 or 10 μg/ml of recombinant GPVI collagen substrate (crosslinked collagen-related peptide (CRP-XL (Anaspec, Inc.), rat-tail collagen (Enzo Life Sciences) or VitroCol (Advanced BioMatrix, Inc.) was coated on a MSD-plate over night at 4° C., washed with PBST, blocked for 1 h at RT with PBS supplemented with 0.05% Tween-20 and 3% skim milk powder, and subsequently washed again with PBST. Purified recombinant GPVI antigens (human, cynomolgus monkey or mouse GPVI as prepared in Example 1) diluted in PBS and varying concentrations of Fab (comprising a modified heavy chain constant region) diluted in PBS (final concentration range 200-0.3 μg/ml) were incubated in a polypropylene plate for 30 min at RT. Fab/GPVI-Fc mixture was added to coated collagen substrate for 1 h at RT. After washing with PBST, bound GPVI form different species was detected using an ECL-conjugated detection antibody directed against human Fc (Jackson Immuno Research) for 1 h at RT. MSD read buffer (Meso Scale Discovery) was added prior to readout in a Sector Imager6000 (Meso Scale Discovery).

B3: Fab #2 comprising a modified heavy chain constant region (Fab, V domains shown)
VH: QVQLVESGGGLVKPGGSLRLSCAASGFSFSDHYMSWIRQAPGKGLEWVSSVGSEGKFIDYAASVKGRFTISRDNAKNSLYLQMNSLRAEDTAVYYCARHYREFRWHYYYFDYWGQGTLVTVSS
VL: QSVLTQPPSVSGAPGQRVTISCTGSSSNIGAGYDVHWYQQLPGTAPKLLIYGNSNRPSGVPDRFSGSKSGTSASLAITGLQAEDEADYYCQSHDLGAHVWVFGGGTKLTVLG
notes: Human Fab from the Ylanthia library; produced in HKB11 cells; also called Fab #2 mod; HC
- EC50 (read off the curve) [1]: ~0.5 mg/L
- Kd [2]: 7.1 nM
- Kd [3]: 0.027 nM
- Kd [4]: 0.024 nM
- EC50 (read off the curve) [5]: ~0.6 mg/L
- IC50 [6]: 7.1 nM
- Max. inhibition at 200 nM Fab [%] [6]: 100%

B5: Fab #1 comprising a modified heavy chain constant region (Fab, V domains shown)
VH: QVQLVQSGAEVKKPGASVKVSCKASGYTFTSHYMHWVRQAPGQGLEWMGLIEPSEGETEYAQRFQGRVTMTRDTSTSTVYMELSSLRSEDTAVYYCARDSSRSYPLGFDIWGQGTLVTVSS
VL: QSVLTQPPSVSAAPGQKVTISCSGSSSNIGNNYVSWYQQLPGTAPKLLIYDNNKRPSGIPDRFSGSKSGTSATLGITGLQTEDEADYYCAAWDFRSSRWVFGGGTKLTVLG
notes: Human Fab from the Ylanthia library; produced in HKB11 cells; also called Fab #1 mod; HC
- EC50 (read off the curve) [1]: ~3 mg/L
- Kd [2]: 28 nM
- Kd [3]: 0.068 nM
- Kd [4]: 0.075 nM
- EC50 (read off the curve) [5]: ~0.4 mg/L
- IC50 [6]: 9.6 nM
- Max. inhibition at 200 nM Fab [%] [6]: 86%

Second part, the binder after the results:

- EC50 (read off the curve) [1]: ~0.2 mg/L
- Kd [2]: 0.29 nM
- Kd [3]: 0.022 nM
- Kd [4]: 0.017 nM
- EC50 (read off the curve) [5]: ~0.7 mg/L
- IC50 [6]: 9.1 nM
- Max. inhibition at 200 nM Fab [%] [6]: 83%
B1: Fab #4 comprising a modified heavy chain constant region (Fab, V domains shown)
VH: QVQLVQSGAEVKKPGASVKVSCKASGGAFTSSYMHWVRQAPGQGLEWMGIIEPTGASTLYAQRFQGRVTMTRDTSTSTVYMELSSLRSEDTAVYYCARTGIALPLGFDLWGQGTLVTVSS
VL: QSVLTQPPSVSAAPGQKVTISCSGSSSNIGNNYVSWYQQLPGTAPKLLIYDNNKRPSGIPDRFSGSKSGTSATLGITGLQTEDEADYYCAAWSTRFRWVFGGGTKLTVLG
notes: Human Fab from the Ylanthia library; produced in HKB11 cells; also called Fab #4 mod; HC

- Kd [3]: 0.054 nM
- Kd [4]: 0.036 nM
- EC50 (read off the curve) [5]: ~0.5 mg/L
- IC50 [6]: 8.8 nM
- Max. inhibition at 200 nM Fab [%] [6]: 99%
B2: Reference Control Antibody RefFab #1 (humanized GPVI antibody of WO2011073954A2, SANOFI) (Fab, V domains shown)
VH: EVQLLESGPGLVAPSGSLSITCTVSGFSLTGYGVNWVRQPPGKGLEWLGMIWGDGSTDYQSTLKSRLSISKDNSKSQVFLKMNSLRTDDTARYYCARDLPMDYWGLGTSVTVSS
VL: DIQMTQSPSSLSASVGGRVTITCKASQDINKYIAWYQHKPGKGPSLLIHYTSTLQPGVPSRFSGSGSGRDYSFSISNLQPEDIATYYCLQYANLLTFGGGTKLEIKR
notes: Cloned into mammalian Fab expression vectors; a glycine-serine linker (G4S)2 was added to the C-terminus of the Fab heavy chain

- EC50 (read off the curve) [1]: ~0.3 mg/L
- Kd [2]: 0.6 nM
- Kd [3]: 0.062 nM
- Kd [4]: 0.068 nM
- EC50 (read off the curve) [5]: ~0.6 mg/L
- IC50 [6]: 7.6 nM
- Max. inhibition at 200 nM Fab [%] [6]: 99%
B4: Fab #3 comprising a modified heavy chain constant region (Fab, V domains shown)
VH: QVQLVESGGGLVKPGGSLRLSCAASGFSFGDYYVSWIRQAPGKGLEWVSAIGGSGSAVQYAESVKGRFTISRDNAKNSLYLQMNSLRAEDTAVYYCARHYREFRWHYYYFDYWGQGTLVTVSS
VL: B3 VL
notes: Human Fab from the Ylanthia library; produced in HKB11 cells; also called Fab #3 mod; HC
